For this assay, the system named is Arabidopsis plants. The following applies: for rank among fungal isolated-PPO genes for growth in the presence of Strike, Star, Goal and Aurora: Strike 2.5, Star 1.25, Goal 1.15, Aurora 1.0 kg/hectare.

“Also recorded” adds a separate entry of the source.

Results on three molecules are retold here after patent publication US12674174B2, “Protoporphyrinogen oxidase (PPO) resistance plant” (PLANTARC BIO LTD., priority 2022, dated 2026).

B1: SEQ ID NO: 112: PPO from Penicillium sp. fused to cTP. Chimeric Protein; cloned from SEQ ID NO: 94 (protein, listed as Penicillium sp.)
chain: MELSLLRPTTQSLLPSFSKPNLRLNVYKPLRLRCSVAGGMRLLTASKGLRSPQKPLISAIRCQHRSYNAAVIGGGITGLTAAWQLIQDRECSSVTIYEKSRRLGGWLQSETIPVEGGEVVFEYGPRTLRSAMPASLPLLYLVSNLGLFDELITTSKRSPAALNRYIYYPDHLVRLPTPDPDLSLMENARNIFRTITTEPLFEGFITGLLSEPNKPARPQEEWAIDESLAEFITRRFNRKIADNLVSAVMHGIYADNIDEMSAQAIMGPLRNLEDGGILFGLLIKSIMGKKTRSMDDFLAVDAVYKTPETMQRLDEINRVVKTASTFTFKRGTQQLVEGLTRALRASEKVRLVMDADILALDPPANRGHKLKIYTGIRGEESFDHVISAISAPAMARILDPQGQVKIDCDPEDEYRALWNSKKARHPKPNIGTVSGLHFFRHATTVMVVNLYYKTPNLLPVDGFGYLIPRSIPYEQNPECGLGVIFASASSSGESPVAPYPKVSQDSAPGTKITIMFGGHYWDGWKKQDYPDHKTAVRMAKDMLERHLGITEPPALVRTRLQENAIPKYKPPHIHQIYALSRWAKEEYHNRLVLVGNSFSGVGVGDCVRQGIMAATHGVGRHKLTATPRLESKDWCPWKEYNYQHWDLKGGVPTAPVRLFESDI
Consider B1, for which the “herbicides against which tolerance was shown” value (FIG. 3C, Strike, Star, Goal, Aurora tested) is “tolerances against Goal and Star herbicides only”.

B2: SEQ ID NO: 114: PPO from Trichoderma sp. fused to cTP. Chimeric Protein; cloned from SEQ ID NO: 96 (protein, listed as Trichoderma sp.)
chain: MELSLLRPTTQSLLPSFSKPNLRLNVYKPLRLRCSVAGGMSLKRADGAAMAFLRLSSAVCGRRRIPAGGLPADANVAVLGGGLTGLTTAYYLAKWLPPTAKITLLEASDRLGGWIKTDRVPVKVGGVEGVVSFERGPRSLSSLNKSTWRFDDLVLWDLALDLGLRVVSPPDKPRYIYYPDHLVPLPPHTSLAAFASEPLVLESLWAGFGYVLRRLFSRKAGVPVQDLSIADWIQHITGSRAVAENLASAMVHGIYGGDIYTLSARSVLDRFYWVHYLPALGPDVRHMALSEQVFMEAMGQDPLIRKLAQQPRGALLNFGEAGMETLPIALADALNGQANVEVKLGAKVTGLEYESETEMMKITTTGQDDSPAEKYHKVISTLPSQHLARITDTLPSLASSHAVSIMTVNIWYPQTNLKPPGFGYLIPLSVPAEQNPERALGVFFDSDVGVRGPDEPAGTKLFVLMGGHYYDKKQPGASVRVPSEEEAIEQAKRVLERHLGIPQSTPCFAMARLASECIPQYVCGHQDTMAAADEDLRDSFDGRLAVAGGSYTKIGAMGALRNGYDIANTVVREDWLTTGLEQLEFPTQFCGVPTERIPVRRFSRR
As to B2, the “rank among fungal isolated-PPO genes for growth in the presence of Strike, Star, Goal and Aurora” value is given as “top 3”.

B3: SEQ ID NO: 115: PPO from Rhodotorula sp. fused to cTP. Chimeric Protein; cloned from SEQ ID NO: 97 (protein, listed as Rhodotorula sp.)
chain: MELSLLRPTTQSLLPSFSKPNLRLNVYKPLRLRCSVAGGMQSYSGNALARQSVPIKPIRRRTPRLNLIRSLPSPRFFVTSPSSSQRHDHPYHTLAILGGGLSGLSTAHYFLRTLSPSLRDQTRIVVLEKEERVGGWCRAVRIQNGRRLGENEKPEGTEDLLVFETGPRSVRPVGLLGWLTIEMAHELGLTPSIVTVPKSAPSARNRFIYTGHRSSTSISPILKAALPTIPSALLEPFRPRSPLHDDPSGLADESVDSFIARRFGRRLADELASAGIHGIYAGDTRRLSVRAVLPALWELEKEWGSVVIGALFGSFARRRGWKKNSPWRMRQQAETEEMERVKERIRAKGGEALVEDMEKASVWGVKGGLQVVTETLREKLEAEGVEFWMGEKGKVEHVEKVDGGWQIRTSSGALDASQLVTTIPQLLPSSLAPPALPATTVSVVNLAFEKPAPGSPPLHPAGFGYLIPRTVPSSLNPHRALGVIFDSDVMPDVDSSSSLGLTKLSLLLGGSYWLDRHPPPQPSHDDLVNAALETLRLHFPDRPIPKPVHAFTHTHVNCIPQVPPGFMPSFRAFGDRLREAGNVAVVGGGFAAVGVNGCVKAAWEVGSAMAQAVNAQAGGKEGEGEEKVREAVARTVKTGTEMWEL
On to B3, for which the “rank among fungal isolated-PPO genes for growth in the presence of Strike, Star, Goal and Aurora” value is listed as “top 3; also recorded: top 2”.
